Patent publication US20230094463A1, “ANTIBODIES THAT DISRUPT THE INTERACTION OF GAL3 AND INSULIN RECEPTOR OR INTEGRINS AND METHODS OF USE THEREOF” (TrueBinding, Inc., priority 2019, published 2023)
Changes are numbered by the printed parent chain. In names and notes the source's numbering stands. Each block holds one binder with its values, some of them ahead of it.

How the values were obtained:
[1] = biological target: Human GAL3 protein (TrueBinding, QCB200349 / QCB200352; R&D Systems, 8259-GA) (human) (UniProt P17931); test: blocking ELISA (GAL3 coated; antibody + biotinylated ITGa3)
[2] = biological target: Human GAL3 protein (TrueBinding, QCB200349 / QCB200352; R&D Systems, 8259-GA) (human) (UniProt P17931); test: cell-based or functional assay
[3] = biological target: Human GAL3 protein (TrueBinding, QCB200349 / QCB200352; R&D Systems, 8259-GA) (human) (UniProt P17931); test: blocking ELISA (GAL3 coated; antibody + biotinylated ITGb1)
[4] = biological target: Human GAL3 protein (TrueBinding, QCB200349 / QCB200352; R&D Systems, 8259-GA) (human) (UniProt P17931); test: blocking ELISA (GAL3 coated; antibody + biotinylated ITGaV)
[5] = biological target: Human GAL3 protein (TrueBinding, QCB200349 / QCB200352; R&D Systems, 8259-GA) (human) (UniProt P17931); test: blocking ELISA (GAL3 coated; antibody + biotinylated ITGb3)
For inhibition of Jurkat T cell adhesion in this document: test concentration or dose not given here.

Human GAL3 protein (TrueBinding, QCB200349 / QCB200352; R&D Systems, 8259-GA) (human), sequence (P17931 2-250 limits assumed): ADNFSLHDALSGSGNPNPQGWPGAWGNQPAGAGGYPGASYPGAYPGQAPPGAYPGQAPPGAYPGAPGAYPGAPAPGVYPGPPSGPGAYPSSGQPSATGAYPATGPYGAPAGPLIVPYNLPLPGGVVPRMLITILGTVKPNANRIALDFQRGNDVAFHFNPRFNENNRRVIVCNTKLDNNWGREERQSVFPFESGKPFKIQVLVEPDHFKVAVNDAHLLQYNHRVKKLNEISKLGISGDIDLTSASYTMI

B1: 15F10.2D6 (antibody, V domains shown)
VH: EVQLVESGGGLVKPGGSLKLSCAASGFAFSSYAMSWVRQTPEKRLEWVATISDGGVYTYYTDHVKGRFTISRDNAEDNLYLQMSHLKSEDTAMYYCVRDGGYWGQGTTLTVSS
VL: DVLMTQTPLSLPVSLGDQASISCRSSQSIVHNNGNTYLEWYLQKPGQSPKLLIYKVSNRFSGVPDRFSGSGSGTDFTLKISRVEAEDLGVYYCFQGSHVPLTFGGGTKLELK
percent blockade of GAL3-ITGa3 interaction [1]: > 90%
inhibition of Jurkat T cell adhesion [2]: 40 to 80%
percent blockade of GAL3-ITGb1 interaction [3]: 40 to 60%

B2: 7D8.2D8 (antibody, V domains shown)
VH: B1 VH with A28T, V56I, T61P, H63N, E76K, D77N, Y80F
VL: B1 VL with N32S, G105A
percent blockade of GAL3-ITGa3 interaction [1]: > 90%
inhibition of Jurkat T cell adhesion [2]: 40 to 80%
percent blockade of GAL3-ITGb1 interaction [3]: 40 to 60%

Further lines, results first:

percent blockade of GAL3-ITGaV interaction [4]: > 90%
B3: F849C.8D10 (antibody, V domains shown)
VH: QVQLQQTGAELVKPGASVKLSCKASGYTFTSYWINWVKQRPGQGLEWIGNIYPGSSSIYYSEKFKSKATLTVDTSSSTAYMQLSSLTSDDSAVYYCARWGYWGQGTTLTVSS
VL: DVLMTQTPLSLPVSLGDQASISCRSSQDIVHSSGNTYLEWYLQKPGQSLKLLIYKVSNRFSGVPDRFSASGSGTDFTLKISRVEAEDLGVYYCFQGSHVPPTFGSGTKLEIKR

percent blockade of GAL3-ITGa3 interaction [1]: > 90%
inhibition of Jurkat T cell adhesion [2]: 40 to 80%
percent blockade of GAL3-ITGb3 interaction [5]: > 90%
B4: F846TC.14E4 (antibody, V domains shown)
VH: QVTLKESGPGILQPSQTLSLTCSFSGFSLSTSGMGVGWIRQPSGKGLEWLAHIWWDDDKYYNTALKSGLTISKDASKNQVFLKIASMDTADTATYYCARNLYDGSYGYYAMDYWGQGTSVTVSS
VL: DIVMTQAAFSNPVTLGTSASISCRSSKSLLHTNGITFLYWYLQKPGQSPQPLIYQMSNLASGVPDRFSSSGSGTDFTLRISRVEAEDVGVYYCAQNLELPWTFGGGTKLEINR
